The target in the assay is CENP-ΔQU complex (CENP-Q^1–294 and CENP-U^30–266) (S. cerevisiae, UniProt P53298 1-294; P38313 30-266). The experiment in a line: ITC.

B1: CENP-A^END-2 peptide (peptide)
peptide: Ac-AGDQQSINDRALSLLQRTRATKNW-NH2
Turning to B1, the equilibrium dissociation constant (Kd) was found to be 0.66 µM.

B2: CENP-A^END-2-R37A peptide (peptide)
peptide: Ac-AGDQQSINDAALSLLQRTRATKNW-NH2
Consider B2, for which the Kd came to 9.67 µM. This Kd is about 15-fold higher than that of the molecule before.

Values taken from PMC10381965 (2022).
